The star is where a group is joined. Biotin = O=C1N[C@H]2[C@H](CS[C@H]2CCCCC(=O)*)N1; fluorescein = fluorescein label
Target: T1, LENG8(283–346) (human, UniProt Q96PV6 283-346)
T1 construct: LENG8, human, residues 283–346 (conserved helical region N-terminal to the SAC3 domain); also called LENG8^283–346 WT; source: recombinant
T1 sequence (looked up): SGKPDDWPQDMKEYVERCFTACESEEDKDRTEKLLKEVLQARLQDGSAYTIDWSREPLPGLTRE
Assay: pull-down; biotinylated, fluorescein-labelled ZFC3H1 peptide (200 µg) on magnetic streptavidin beads; 15 μg LENG8(283–346) or its F301A mutant added, 60 min at 4 °C; 25 mM HEPES pH 7.9, 100 mM NaCl, 5% glycerol, 1 mM MgCl2, 1 mM TCEP, 0.01% Igepal CA-630; glycine pH 2.5 elution; Coomassie and fluorescein imaging
Conditions: both partners purified

- binding result: binds
B1: Biotin-ZFC3H1^728–752 wild-type peptide, C-terminal fluorescein (peptide, UniProt O60293 728-752, looked up)
peptide: Biotin-NSVFGGLESMIKEARRTAEQASKPK-fluorescein
notes: ZFC3H1, human, residues 728–752; also called ZFC3H1 peptide WT

— publication PMC13391367 (Nature, 2025)
